Measured values from PMC3139566 (Biochemistry, 2011).
Where no end group is shown, it is not given here. [ ]: non-standard residue; d: D form. pY = N[C@@H](Cc1ccc(OP(=O)(O)O)cc1)C(=O)O

Key:
[1] = biological target: T1, Fe65 N-term-WW-PID1-PID2 1-662 (human, UniProt O00213-2 1-662); experiment: SPR
T1 sequence (looked up): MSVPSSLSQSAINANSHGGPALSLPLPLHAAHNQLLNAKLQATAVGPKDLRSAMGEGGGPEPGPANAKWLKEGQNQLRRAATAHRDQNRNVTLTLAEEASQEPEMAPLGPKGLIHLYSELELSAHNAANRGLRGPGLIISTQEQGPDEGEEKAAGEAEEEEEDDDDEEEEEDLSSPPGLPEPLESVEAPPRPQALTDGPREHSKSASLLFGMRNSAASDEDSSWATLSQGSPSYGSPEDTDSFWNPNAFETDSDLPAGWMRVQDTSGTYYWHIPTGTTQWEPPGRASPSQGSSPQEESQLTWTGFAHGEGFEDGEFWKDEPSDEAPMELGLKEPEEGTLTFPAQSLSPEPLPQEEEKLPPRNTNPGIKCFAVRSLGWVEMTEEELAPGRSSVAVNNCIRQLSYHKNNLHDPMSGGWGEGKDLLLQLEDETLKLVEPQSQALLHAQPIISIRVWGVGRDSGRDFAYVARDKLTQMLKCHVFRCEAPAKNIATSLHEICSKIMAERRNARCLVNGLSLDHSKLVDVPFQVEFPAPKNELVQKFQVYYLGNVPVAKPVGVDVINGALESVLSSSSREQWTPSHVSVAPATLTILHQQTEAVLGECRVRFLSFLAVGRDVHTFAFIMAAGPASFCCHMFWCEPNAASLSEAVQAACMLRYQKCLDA

[2] = biological target: T2, Fe65 WW-PID1-PID2 236-662 (human, UniProt O00213-2 236-662); experiment: fluorescence polarisation
T2 sequence (looked up): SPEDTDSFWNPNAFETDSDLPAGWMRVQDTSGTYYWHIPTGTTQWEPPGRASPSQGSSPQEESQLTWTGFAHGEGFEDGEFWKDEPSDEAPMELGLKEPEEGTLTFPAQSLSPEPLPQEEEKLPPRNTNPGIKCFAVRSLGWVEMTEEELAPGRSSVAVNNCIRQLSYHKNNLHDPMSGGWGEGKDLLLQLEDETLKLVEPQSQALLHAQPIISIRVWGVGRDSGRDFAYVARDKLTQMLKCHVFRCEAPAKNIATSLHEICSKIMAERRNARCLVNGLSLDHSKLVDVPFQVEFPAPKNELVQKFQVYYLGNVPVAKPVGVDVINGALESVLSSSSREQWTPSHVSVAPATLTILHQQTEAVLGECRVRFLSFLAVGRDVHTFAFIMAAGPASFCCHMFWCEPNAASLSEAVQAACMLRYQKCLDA

[3] = biological target: T3, Fe65 WW-PID1 236-512 (human, UniProt O00213-2 236-512); experiment: fluorescence polarisation
T3 sequence (looked up): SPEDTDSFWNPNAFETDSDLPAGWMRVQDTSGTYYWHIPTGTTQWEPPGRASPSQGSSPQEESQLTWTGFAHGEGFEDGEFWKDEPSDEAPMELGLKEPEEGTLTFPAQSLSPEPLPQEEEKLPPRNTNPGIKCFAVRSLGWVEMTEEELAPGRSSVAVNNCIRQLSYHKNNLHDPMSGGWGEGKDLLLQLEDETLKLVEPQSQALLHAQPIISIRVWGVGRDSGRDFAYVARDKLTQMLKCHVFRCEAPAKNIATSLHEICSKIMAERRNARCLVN

B1: APP Intracellular Domain (AICD, residues 649-695), biotinylated at the N-terminal cysteine (domain or fragment)
chain: GSKLCKKKQYTSIHHGVVEVDAAVTPEERHLSKMQQNGYENPTYKFFEQMQN
modifications: biotin (biotin-maleimide) on the N-terminal cysteine
For B1, the Kd [1] was 2.5 ± 0.35 µM.

B2: LRP4488 phosphorylated at Y4507 (pYLRP4488) labeled with Oregon Green 488 (domain or fragment, human)
chain: C(Oregon Green 488 maleimide)LDADFALDPDKPTNFTNPV[pY]ATLYMGGHGSRHSLASTDEKRELLGRGPEDEIGDPLA
With B2 the Kd [2] was 48.3 µM and the Kd [3] was 66.7 µM.
